Results on 18 substances are retold here after US20140017267A1, “METALLOPROTEINASE OLIGOPEPTIDES AND THEIR THERAPEUTIC USE” (priority 2012, published 2014).

Data set [1] is described as follows: Testing of peptide solubility. The format is physicochemical. To be noted: 8M Urea, final concentration 1.1 mg/ml (first solubility table, headed TABLE 1). The protocol: Testing of peptide solubility: Data for peptide solubility are represented in Table 1 and 2. Peptides SEQ ID 5-21 was dissolved in 8M Urea to a final concentration of 1.1 mg/ml.
Data set [2] has as its system BALB/c female mouse. Kind of data set: Immune response to individual peptide: immunization of mice, indirect solid-phase immunoenzymatic assay of antiserum (A450). The format is in vivo. As to conditions: for immune response: comparison among the 17 peptides; for OD 450 Mean values (n = 3-5) for dilution 1:10,000: antiserum of mice immunized i.p. with 100 μg peptide+Str-HRP, day 38 bleed, serum dilution 1:10,000. The protocol:
Peptides were dissolved in appropriate volume 8M Urea and additional solution. Final concentration of peptide-Str-HRP solution was 0.8 mg/ml and 0.6 mg/ml for peptide and Str-HRP, respectively. After dissolving, 4 aliquotes in 0.2 ml portions were taken from each peptide solution, mixed with 0.6 ml Str-HRP and incubated over night at +4° C. Conjugate peptide with carrier protein (Str-HRP) was frozen and stored at −20° C. until further use. Final concentration of urea in peptide-Str-HRP solution was 2M for all peptides.
Day 0: Immunization with complete Freund's adjuvant Day 7: Booster with incomplete Freund's adjuvant Day 14: Booster with incomplete Freund's adjuvant Day 28: Booster with incomplete Freund's adjuvant Day 38: Terminal bleed
Method of Immunization: Frozen 0.8 ml aliquotes of peptide+Str-HRP conjugate were thawed at room temperature (RT) and mixed with 0.8 ml of appropriate adjuvant. Adjuvant was added and mixed by vortexing immediately before injections were given. Immunization was done by using intra peritoneal injections with 100 μg peptide per animal in final volume 250 μl of 1:1 (v:v) peptide+Str-HRP:adjuvant. Five animals were used per peptide.
Preparation of serum: At 38 days, the mouse was bled. Blood was collected in 2-ml microcentrifuge tube and the blood was allowed to clot at room temperature for 1 hour. Centrifugation using the microcentrifuge tube with the clot inside was done for 15 min at 2500 g and serum was collected. Volume for each sample was no less than 400 μl. The serum was stored at −20° C.
Testing immune response to individual peptide: Determination of mouse antibodies to peptide based on indirect solid-phase immunoenzymatic assay with avidin on solid-phase was performed. Materials used were 96-well polystyrene plates high binding (#9018 Costar, USA), all solution for ELISA: sample diluent (10 mM sodium phosphate, 500 mM NaCl, 0.5% BSA, 0.05% Tween-20, pH 7.4), conjugate diluent (10 mM sodium phosphate, 150 mM NaCl, 0.5% BSA, 0.05% Tween-20, pH 7.4), wash fluid (10 mM sodium phosphate, 300 mM NaCl, 0.05% Tween-20, pH 7.4), substrate buffer (50 mM sodium citrate and hydrogen peroxide, pH 5.0), TMB solution (3,3′,5,5′-tetramethylbenzidine), stop solution (2M sulphuric acid) were taken from EIA Kit for detection of antibody to HIV “Peptoscreen-2” (Amercard Ltd, Russia), conjugate of rabbit antibody to mouse IgG with HRPO (custom made), avidin from egg white (Imtek, Russia). Negative controls of 5 sera were pooled from the nonimmune BALB/c female mouse. Dispensing of solutions with Finnpipette digital adjustable volume pipettes 0.5-10 μl, 5-40 μl, 20-200 μl, 200-1000 μl, 1-5 ml and 12-channel pipettes 5-50 μl, 50-200 μl. Plate washer ZLE201 (Amersham Inc., UK), incubator at 37° C.—Imperial II (Lab-Line Instruments Inc., USA), EIA plate reader—Luminometer-Photometer LM01A (Immunotech, Beckman Coulter Company, USA).
Test procedure: Peptides for binding on the avidin-coated plate were taken from test-solution for determining the solubility of peptides (chapter 1.3., table 1 and 2) and were dissolved up to 2 mM in sample diluents immediately before the test procedure as shown in Table 3.
EIA plates were coated by adding to a well containing 100 μl of avidin dissolved 10 μg/ml in 50 mM carbonate buffer, pH 9.5 and incubated for 20 h at 20° C. The plates were washed 4 times with wash fluid. Peptides 2 mM, […] in sample diluent and incubated 60 min at 37° C. Control wells contain avidin. The plates were washed 4 times with wash fluid. Serum from each mouse and negative control were diluted 1:100, 1:1000 and 1:10000 in sample diluents and were added to the wells, coated by the corresponding peptide (100 μl per well) and incubated for 1 h at 37° C. The plates were washed 4 times with wash fluid. Conjugates of rabbit anti-mouse IgG antibody with HRPO (dilution of 1:3000 in conjugate diluent) were added to the wells (100 μl per well). The plates were incubated for 0.5 h at 37° C. […]

Data set [3] is described as follows: Testing of peptide solubility. The format is physicochemical.
Setting [4] is: 8M Urea, larger weights (TABLE 2), no additional solution.

For “SEQ ID 13: Chicken MMP-9 synthetic oligopeptide, sequence CHFPFIFEGRSYSRC”, the Solubility entry in data set [1] and in data set [3] (setting [4]) was “Soluble” throughout. For the same substance, in data set [2], the immune response entry is “most active”.
For the substance “SEQ ID 21: Rabbit MMP-9 synthetic oligopeptide, sequence DKDKLYGFCPTRADS”, the Solubility entry in data set [1] and in data set [3] (setting [4]) was “Soluble” in each case. In data set [2], the “OD 450 Mean values (n = 3-5) for dilution 1:10,000” value (“OD 450 Mean values” for short) worked out at 0.411.
Take “SEQ ID 14: European Carp MMP-9 synthetic oligopeptide, sequence CHFPFLFEGTSYSSC”: the Solubility result in data set [1] and in data set [3] (setting [4]) was “Soluble” in each case. For the same substance, the “OD 450 Mean values” value in data set [2] was found to be 0.394.
For “SEQ ID 5: Mouse MMP-9 synthetic oligopeptide, sequence DKDGKFGF”, the Solubility entry in data set [1] and in data set [3] (setting [4]) was “Soluble” in each case. In data set [2], the “OD 450 Mean values” value stood at 0.845.
“SEQ ID 7: Rat MMP-9 synthetic oligopeptide, sequence DTDRKYGF”: the Solubility result in data set [1] and in data set [3] (setting [4]) was “Soluble” in each case. The “OD 450 Mean values” value in data set [2] is recorded as 1.610.
“SEQ ID 16: Flounder MMP-9 synthetic oligopeptide, sequence CHFPFTFEGKSYTSC”: the Solubility entry in data set [1] and in data set [3] (setting [4]) was “Soluble” each time. In data set [2], the “OD 450 Mean values” value is listed as 0.823.
On to “SEQ ID 8: Carp MMP-9 synthetic oligopeptide, sequence DKDKIFGF”, for which the Solubility result in data set [1] and in data set [3] (setting [4]) was “Soluble” in each case. Moreover, the “OD 450 Mean values” value in data set [2] is given as 0.097.
For the substance “SEQ ID 19: Mouse MMP-9 synthetic oligopeptide, sequence DQDKLYGFCPTRVDA (printed identical to SEQ ID 17)”, the Solubility entry in data set [1] and in data set [3] (setting [4]) was “Soluble” throughout. Besides, in data set [2], the “OD 450 Mean values” value is 0.818.
As for “SEQ ID 15: Pufferfish MMP-9 synthetic oligopeptide, sequence CHFPFRFQNKPYKHC”, the Solubility result in data set [1] and in data set [3] (setting [4]) was “Soluble” each time. Moreover, in data set [2], the immune response result is “most active”.
In the case of “SEQ ID 18: Rat MMP-9 synthetic oligopeptide, sequence DKADGFCPTRADVTV”, the Solubility entry in data set [1] and in data set [3] (setting [4]) was “Soluble” each time. Also, the “OD 450 Mean values” value in data set [2] stood at 0.138.
Consider “SEQ ID 9: Pufferfish MMP-9 synthetic oligopeptide, sequence DKDKKYGF”, for which the Solubility result in data set [1] and in data set [3] (setting [4]) was “Soluble” each time. Further, the “OD 450 Mean values” value in data set [2] was determined as 0.131.
On to “SEQ ID 12: Rat MMP-9 synthetic oligopeptide, sequence CHFPFTFEGRSYLSC”, for which the Solubility result is given as “Insoluble” in data set [1] and “Soluble” in data set [3] (8M Urea plus equal volume 0.1M Na-carbonate buffer, pH 9.5 (TABLE 2)). Besides, the “OD 450 Mean values” value in data set [2] stood at 0.661.
“SEQ ID 11: Mouse MMP-9 synthetic oligopeptide, sequence DKDGKFGF (printed identical to SEQ ID 5)”: the Solubility entry in data set [1] and in data set [3] (setting [4]) was “Soluble” each time. Besides, the “OD 450 Mean values” value in data set [2] worked out at 0.183.
“SEQ ID 6: Bovine MMP-9 synthetic oligopeptide, sequence DADRQFGF”: the Solubility entry in data set [1] and in data set [3] (setting [4]) was “Soluble” each time. In addition, the “OD 450 Mean values” value in data set [2] is on record as 0.096.
For the substance “SEQ ID 17: Bovine MMP-9 synthetic oligopeptide, sequence DQDKLYGFCPTRVDA”, the Solubility entry in data set [1] and in data set [3] (setting [4]) was “Soluble” in each case. Moreover, in data set [2], the “OD 450 Mean values” value was determined as 0.780.
Take “H-RILAVERYLKDQQLLGIWGCSGKLICTTAVPWNAS-OH (cysteine pairing not given here) [SP35, reference compound]”: in data set [3] (setting [4]), the Solubility result is listed as “Soluble”.
On to “SEQ ID 20: Carp MMP-9 synthetic oligopeptide, sequence DKKYGFCPNRDTAVI”, for which the Solubility result in data set [1] and in data set [3] (setting [4]) was “Soluble” in each case. Also, in data set [2], the “OD 450 Mean values” value came to 0.138.
As to “SEQ ID 10: Rabbit MMP-9 synthetic oligopeptide, sequence DTDRRFGF”, the Solubility result in data set [1] and in data set [3] (setting [4]) was “Soluble” each time.
